Source: PMC3227653 (PLoS ONE, 2011)

Target: Clostridium difficile toxin A (Clostridioides difficile …, UniProt P16154)
Assay: SPR
Details: both partners purified

Row | Binder | Kd [nM] | koff [s⁻¹] | kon [M⁻¹ s⁻¹]
1 | A26.8m (VHH) VHH: QVKLEESGGGLVQAGGSLRLSCAASERTFSRYPVAWFRQAPGAEREFVCVISSTGTSTYYADSVKGRFTCSRDNAKVTVYLQMNNLKREDTAVYFCAVNSQRTRLQDPNEYDYWGQGTQVTVSS | 28 | 0.028 | 1e+06
2 | A4.2m (VHH) VHH: QVKLEESGGGLVQAGGSLRLSCAASGRTFNTLSMGWFRQAPGKEREFVCAVSRSGGSTYYADSVKGRFTCSRDNAKNTVYLQMNSLKPEDTAVYYCAAAATKSNTTAYRLSFDYWGQGTQVTVSS | 20 | 0.019 | 930000
3 | A5.1m (VHH) VHH: QVKLEESGGGLVQAGGSLRLSCAASGRTFSMYRMGWFRQAPGKEREFVCVITRNGSSTYYADSVKGRFTCSRDNAKNTVYLQMNSLKPEDTALYYCAATSGSSYLDAAHVYDYWGQGTQVTVSS | 17 | 0.016 | 950000
4 | A20.1m (VHH) VHH: QVQLVESGGGLAQAGGSLRLSCAASGRTFSMDPMAWFRQPPGKEREFVCAGSSTGRTTYYADSVKGRFTCSRDNAKNTVYLQMNSLKPEDTAVYYCAAAPYGANWYRDEYAYWGQGTQVTVSS | 9.2 | 0.0059 | 640000
